Measurements published in patent US20260248837A1.

Target: human CXCR4 (human) (UniProt P61073)
Experiment: cell-based or functional assay

Sequence of UniProt P61073 (P61073 1-350): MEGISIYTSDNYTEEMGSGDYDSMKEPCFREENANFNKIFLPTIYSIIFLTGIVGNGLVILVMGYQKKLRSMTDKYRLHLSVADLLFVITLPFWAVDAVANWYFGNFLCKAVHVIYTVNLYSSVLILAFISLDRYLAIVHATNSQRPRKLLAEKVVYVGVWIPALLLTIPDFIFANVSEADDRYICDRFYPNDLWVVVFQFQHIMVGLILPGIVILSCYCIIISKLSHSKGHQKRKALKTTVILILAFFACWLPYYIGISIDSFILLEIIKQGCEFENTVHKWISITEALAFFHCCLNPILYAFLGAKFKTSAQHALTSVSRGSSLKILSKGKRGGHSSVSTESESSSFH

## human CXCL12 (human CXCL12α, L-CXCL12) (ligand)
  migration of Jurkat cells (chemotaxis assay), half-maximal stimulation: 0.3 nM
  migration of Nalm-6 cells (chemotaxis assay), half-maximal stimulation: 0.3 nM
